B1: AMOTL2 peptide 64-79 (Angiomotin-like protein 2), 16-mer library wild type / TNKS ANK (TNKS 12 ANK repeats, residues 174-649) (parent complex)
chain 1: QVLQQATRQEPQGQEH
chain 2: TGVPAVSGALRELLEACRNGDVSRVKRLVDAANVNAKDMAGRKSSPLHFAAGFGRKDVVEHLLQMGANVHARDDGGLIPLHNACSFGHAEVVSLLLCQGADPNARDNWNYTPLHEAAIKGKIDVCIVLLQHGADPNIRNTDGKSALDLADPSAKAVLTGEYKKDELLEAARSGNEEKLMALLTPLNVNCHASDGRKSTPLHLAAGYNRVRIVQLLLQHGADVHAKDKGGLVPLHNACSYGHYEVTELLLKHGACVNAMDLWQFTPLHEAASKNRVEVCSLLLSHGADPTLVNCHGKSAVDMAPTPELRERLTYEFKGHSLLQAAREADLAKVKKTLALEIINFKQPQSHETALHCAVASLHPKRKQVTELLLRKGANVNEKNKDFMTPLHVAAERAHNDVMEVLHKHGAKMNALDTLGQTALHRAALAGHLQTCRLLLSYGSDPSIISLQGFTAAQMGNEAVQQILSESTPIRTSD
B2: RNF115 peptide 69-84 (E3 ubiquitin-protein ligase RNF115), 16-mer library wild type / MDM2 SWIB (MDM2 SWIB/MDM2 domain, residues 17-125) (parent complex)
chain 1: THFAELWGHLDHTMFF
chain 2: SQIPASEQETLVRPKPLLLKLLKSVGAQKDTYTMKEVLFYLGQYIMTKRLYDEKQQHIVYCSNDLLGDLFGVPSFSVKEHRKIYTMIYRNLVVVNQQESSDSGTSVSEN

The results in this text go back to PMC12102759 (2025).

The variants in the first test derive from B1. Kind of test: proteomic peptide phage display deep mutational scan (ProP-PD DMS): M13 P8 16-mer library selected against immobilised GST-tagged bait for four days (rounds), NGS of the eluted pools per day and pseudo-replica; bait immobilised on MaxiSorp plates (10 µg), library pre-cleared on GST, 2 h binding at 4 °C, five washes; one round per day, days 1-4; value from days 2 and 3.
For chain 1 QVLQQATRQEPQVQEH, the screen value was 0.00137 average fractional NGS count over selection days 2 and 3 (reads of this peptide / all reads for the bait, averaged over ….

In the case of chain 1 QVLQQATRQPPQGQEH, the screen value was 0.00208 average fractional NGS count over selection days 2 and 3 (reads of this peptide / all reads for the bait, averaged over ….

Take chain 1 QVLQQATRQSPQGQEH: the screen value is 0.000835 average fractional NGS count over selection days 2 and 3 (reads of this peptide / all reads for the bait, averaged over ….

On to chain 1 QVLQQATRQIPQGQEH, for which the screen value was 0.000303 average fractional NGS count over selection days 2 and 3 (reads of this peptide / all reads for the bait, averaged over ….

Take chain 1 QVLQQATRQLPQGQEH: the screen value was 0.000172 average fractional NGS count over selection days 2 and 3 (reads of this peptide / all reads for the bait, averaged over ….

Take chain 1 QVLQQATRQKPQGQEH: the screen value is 0.000435 average fractional NGS count over selection days 2 and 3 (reads of this peptide / all reads for the bait, averaged over ….

Regarding chain 1 QVLQQATRQYPQGQEH, the screen value was 0.00125 average fractional NGS count over selection days 2 and 3 (reads of this peptide / all reads for the bait, averaged over ….

Turning to chain 1 QVLQQATRQNPQGQEH, the screen value is 0.000822 average fractional NGS count over selection days 2 and 3 (reads of this peptide / all reads for the bait, averaged over ….

Take chain 1 QVLQQATRQTPQGQEH: the screen value was 0.00297 average fractional NGS count over selection days 2 and 3 (reads of this peptide / all reads for the bait, averaged over ….

Take chain 1 QVLQQATRQGPQGQEH: the screen value is 0.00177 average fractional NGS count over selection days 2 and 3 (reads of this peptide / all reads for the bait, averaged over ….

On to chain 1 QVLQQATRLEPQGQEH, for which the screen value was 0.000942 average fractional NGS count over selection days 2 and 3 (reads of this peptide / all reads for the bait, averaged over ….

Consider chain 1 QVLQQATRHEPQGQEH, for which the screen value was 0.000266 average fractional NGS count over selection days 2 and 3 (reads of this peptide / all reads for the bait, averaged over ….

As to chain 1 QVLQQATRFEPQGQEH, the screen value was 0.000243 average fractional NGS count over selection days 2 and 3 (reads of this peptide / all reads for the bait, averaged over ….

For the variant chain 1 QVLQQATRPEPQGQEH, the screen value was 0.00216 average fractional NGS count over selection days 2 and 3 (reads of this peptide / all reads for the bait, averaged over ….

Turning to chain 1 QVLQQATRMEPQGQEH, the screen value is 0.000331 average fractional NGS count over selection days 2 and 3 (reads of this peptide / all reads for the bait, averaged over ….

Consider chain 1 QVLQQATRDEPQGQEH, for which the screen value is 0.00088 average fractional NGS count over selection days 2 and 3 (reads of this peptide / all reads for the bait, averaged over ….

In the case of chain 1 QVLQQATRSEPQGQEH, the screen value was 0.000874 average fractional NGS count over selection days 2 and 3 (reads of this peptide / all reads for the bait, averaged over ….

With chain 1 QVLQQATRTEPQGQEH, the screen value was 0.000851 average fractional NGS count over selection days 2 and 3 (reads of this peptide / all reads for the bait, averaged over ….

chain 1 QVLQQATRYEPQGQEH: the screen value is 0.000466 average fractional NGS count over selection days 2 and 3 (reads of this peptide / all reads for the bait, averaged over ….

As for chain 1 QRLQQATRQEPQGQEH, the screen value was 0.000931 average fractional NGS count over selection days 2 and 3 (reads of this peptide / all reads for the bait, averaged over ….

With chain 1 QSLQQATRQEPQGQEH, the screen value is 0.000464 average fractional NGS count over selection days 2 and 3 (reads of this peptide / all reads for the bait, averaged over ….

Regarding chain 1 QDLQQATRQEPQGQEH, the screen value was 0.000341 average fractional NGS count over selection days 2 and 3 (reads of this peptide / all reads for the bait, averaged over ….

As for chain 1 QELQQATRQEPQGQEH, the screen value was 0.00192 average fractional NGS count over selection days 2 and 3 (reads of this peptide / all reads for the bait, averaged over ….

chain 1 QTLQQATRQEPQGQEH: the screen value is 0.00555 average fractional NGS count over selection days 2 and 3 (reads of this peptide / all reads for the bait, averaged over ….

Consider chain 1 QMLQQATRQEPQGQEH, for which the screen value is 0.000248 average fractional NGS count over selection days 2 and 3 (reads of this peptide / all reads for the bait, averaged over ….

For chain 1 QILQQATRQEPQGQEH, the screen value was 0.0014 average fractional NGS count over selection days 2 and 3 (reads of this peptide / all reads for the bait, averaged over ….

The variants in a further test derive from B2. Described as above.
For the variant chain 1 E5S, the screen value was 0.00184 average fractional NGS count over selection days 2 and 3 (reads of this peptide / all reads for the bait, averaged over ….

For the variant chain 1 E5V, the screen value is 0.000931 average fractional NGS count over selection days 2 and 3 (reads of this peptide / all reads for the bait, averaged over ….

For chain 1 L6M, the screen value was 0.000951 average fractional NGS count over selection days 2 and 3 (reads of this peptide / all reads for the bait, averaged over ….

With chain 1 L6V, the screen value was 0.000773 average fractional NGS count over selection days 2 and 3 (reads of this peptide / all reads for the bait, averaged over ….

On to chain 1 D11Q, for which the screen value was 0.000111 average fractional NGS count over selection days 2 and 3 (reads of this peptide / all reads for the bait, averaged over ….

On to chain 1 G8T, for which the screen value is 0.00199 average fractional NGS count over selection days 2 and 3 (reads of this peptide / all reads for the bait, averaged over ….

With chain 1 G8N, the screen value was 0.00558 average fractional NGS count over selection days 2 and 3 (reads of this peptide / all reads for the bait, averaged over ….

With chain 1 M14E, the screen value is 0.000177 average fractional NGS count over selection days 2 and 3 (reads of this peptide / all reads for the bait, averaged over ….

In the case of chain 1 M14F, the screen value was 0.000469 average fractional NGS count over selection days 2 and 3 (reads of this peptide / all reads for the bait, averaged over ….

As for chain 1 M14P, the screen value is 0.00244 average fractional NGS count over selection days 2 and 3 (reads of this peptide / all reads for the bait, averaged over ….

In the case of chain 1 H12N, the screen value was 0.00222 average fractional NGS count over selection days 2 and 3 (reads of this peptide / all reads for the bait, averaged over ….

As for chain 1 H12V, the screen value is 0.000717 average fractional NGS count over selection days 2 and 3 (reads of this peptide / all reads for the bait, averaged over ….

Consider chain 1 H12L, for which the screen value is 0.000337 average fractional NGS count over selection days 2 and 3 (reads of this peptide / all reads for the bait, averaged over ….

In the case of chain 1 H12S, the screen value is 0.00289 average fractional NGS count over selection days 2 and 3 (reads of this peptide / all reads for the bait, averaged over ….

Consider chain 1 H9A, for which the screen value is 0.00146 average fractional NGS count over selection days 2 and 3 (reads of this peptide / all reads for the bait, averaged over ….

Turning to chain 1 H9K, the screen value was 0.0135 average fractional NGS count over selection days 2 and 3 (reads of this peptide / all reads for the bait, averaged over ….

As for chain 1 T13W, the screen value is 0.000505 average fractional NGS count over selection days 2 and 3 (reads of this peptide / all reads for the bait, averaged over ….

For chain 1 T13Q, the screen value is 0.000442 average fractional NGS count over selection days 2 and 3 (reads of this peptide / all reads for the bait, averaged over ….

For the variant chain 1 T13G, the screen value was 0.00624 average fractional NGS count over selection days 2 and 3 (reads of this peptide / all reads for the bait, averaged over ….

On to chain 1 T13P, for which the screen value is 0.000265 average fractional NGS count over selection days 2 and 3 (reads of this peptide / all reads for the bait, averaged over ….

Turning to chain 1 H2Q, the screen value was 0.00104 average fractional NGS count over selection days 2 and 3 (reads of this peptide / all reads for the bait, averaged over ….

With chain 1 H2I, the screen value is 0.000473 average fractional NGS count over selection days 2 and 3 (reads of this peptide / all reads for the bait, averaged over ….

Turning to chain 1 H2E, the screen value was 0.000801 average fractional NGS count over selection days 2 and 3 (reads of this peptide / all reads for the bait, averaged over ….

In the case of chain 1 H2G, the screen value is 0.0014 average fractional NGS count over selection days 2 and 3 (reads of this peptide / all reads for the bait, averaged over ….

For chain 1 T1H, the screen value is 0.00126 average fractional NGS count over selection days 2 and 3 (reads of this peptide / all reads for the bait, averaged over ….

For the variant chain 1 T1D, the screen value was 0.000599 average fractional NGS count over selection days 2 and 3 (reads of this peptide / all reads for the bait, averaged over ….

As for chain 1 T1F, the screen value was 0.000233 average fractional NGS count over selection days 2 and 3 (reads of this peptide / all reads for the bait, averaged over ….

On to chain 1 L10M, for which the screen value was 0.00099 average fractional NGS count over selection days 2 and 3 (reads of this peptide / all reads for the bait, averaged over ….

Turning to chain 1 A4P, the screen value was 0.000473 average fractional NGS count over selection days 2 and 3 (reads of this peptide / all reads for the bait, averaged over ….

Turning to chain 1 F15Q, the screen value is 0.0113 average fractional NGS count over selection days 2 and 3 (reads of this peptide / all reads for the bait, averaged over ….

Take chain 1 F15S: the screen value was 0.0126 average fractional NGS count over selection days 2 and 3 (reads of this peptide / all reads for the bait, averaged over ….

As to chain 1 F15H, the screen value was 0.000286 average fractional NGS count over selection days 2 and 3 (reads of this peptide / all reads for the bait, averaged over ….

chain 1 F15M: the screen value is 0.0114 average fractional NGS count over selection days 2 and 3 (reads of this peptide / all reads for the bait, averaged over ….

Take chain 1 F15R: the screen value is 0.00042 average fractional NGS count over selection days 2 and 3 (reads of this peptide / all reads for the bait, averaged over ….
